{"source": "patent US20230111279A1"}
{"target": "Clec12A on cells (Clec12A over-expressing CHO-S cells; U937 cells endogenously expressing Clec12A) (UniProt Q5QGZ9)", "sequence (Q5QGZ9 whole entry)": "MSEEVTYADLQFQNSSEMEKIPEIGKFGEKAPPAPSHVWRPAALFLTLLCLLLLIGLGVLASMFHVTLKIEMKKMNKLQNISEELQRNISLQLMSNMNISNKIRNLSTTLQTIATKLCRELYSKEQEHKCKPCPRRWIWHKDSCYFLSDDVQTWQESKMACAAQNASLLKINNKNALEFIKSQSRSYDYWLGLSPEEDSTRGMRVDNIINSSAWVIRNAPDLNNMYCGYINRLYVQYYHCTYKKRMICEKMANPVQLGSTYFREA", "test": "flow cytometry, serial dilution, on U937 cells endogenously expressing Clec12A", "units": {"EC50": "nM"}}
{"binder": "anti-Clec12A antibody B (antibody, V domains shown) VH: QVQLVESGGGVVQPGRSLRLSCAASGFTFSSYGMHWVRQAPGKGLEWVAVISYDGSDKYYVDSVKGRFTISRDNSKNTLYLHMNSLRAEDTAVYYCARDKGYYFDYWGQGTLVTVSS VL: EIVMTQSPATLSLSPGERATLSCRASQSVGNRYLSWYQQKPGQAPRLLIYGASTRATGIPARFSGSGSGTDFTLTISSLQPEDFAVYYCQQDYNLPLTFGGGTKVEIK", "EC50": 3.36}
{"binder": "anti-Clec12A antibody C (antibody, V domains shown) VH: QVQLVESGGGVVQPGRSLRLSCAASGFTFSSYGMHWVRQAPGKGLEWVAVISYDGSDKYSADSVKGRFNISRDNSKNTLYLQMNSLRAEDTAVYYCARDGSRYFDYWGQGTLVTVSS VL: EIFMTQSPATLSLSPGERATLSCRASQSVHSKYLSWYQQKPGQAPSLLIYGASTRATGIPARFSGSGSGTDFTLTISSLQPEDFAVYYCQQDYNLPITFGQGTRLEIK", "EC50": 3.35}
{"binder": "anti-Clec12A antibody A (antibody, V domains shown) VH: QVQLQESGPGLVKPSETLSLTCTVSGGSISTYYWSWIRQPPGKGLEWIGYIYYSGSTKYNPSLKSRVTISVDTSKNLFSLKLSSVTAADTAVYYCAREDYYGSGSPFDYWGQGTLVTVSS VL: IQMTQSPSSLSASVGDRVTITCRASQGIRYDLGWYQQKPGKAPKLLIYAASSLQSGVPSRFSGSGSGTDFTLTISSLQPEDFATYYCLQDYNFPRTFGQGTKVEIK", "EC50": 0.621}
